Test system: Escherichia coli TOP10
Assay: shrunken log2 fold change of peptide-encoding DNA abundance (4.5 h post-induction vs induction); higher = less antimicrobial activity (less host growth inhibition)
Conditions: time post-induction: 4.5 h; library: site-saturation at positions 5, 18, 19, 20
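Note: peptides expressed intracellularly from a pBAD plasmid library in pooled LB shake-flask culture, induced with 0.3% L-arabinose, DNA abundance read by NGS, three biological replicates, DESeq2 with apeglm shrinkage.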

Sequence	shrunken log2 fold change
RRIRSRPPRLPRPRPRPSCHPRP	-0.245
RRIRARPPRLPRPRPRPHWVPRP	0.0153
RRIRYRPPRLPRPRPRPGGLPRP	3.02
RRIRMRPPRLPRPRPRPMGMPRP	-0.103
RRIRDRPPRLPRPRPRPLLPPRP	0.356
RRIRDRPPRLPRPRPRPEHKPRP	0.0114
RRIRMRPPRLPRPRPRPWTSPRP	0.0303
RRIRYRPPRLPRPRPRPNNNPRP	-0.989
RRIRVRPPRLPRPRPRPSGSPRP	-0.0176
RRIRHRPPRLPRPRPRPRDWPRP	0.645
RRIRIRPPRLPRPRPRPRRWPRP	0.592
RRIRHRPPRLPRPRPRPWEKPRP	-0.359
RRIRGRPPRLPRPRPRPNVEPRP	0.183
RRIRSRPPRLPRPRPRPATAPRP	0.322
RRIRKRPPRLPRPRPRPKTRPRP	0.444
RRIRPRPPRLPRPRPRPRAFPRP	0.32
RRIRLRPPRLPRPRPRPWVQPRP	-0.118
RRIRTRPPRLPRPRPRPCRIPRP	-0.0965
RRIRRRPPRLPRPRPRPTIIPRP	-0.159
RRIRSRPPRLPRPRPRPMPYPRP	-0.278
RRIRQRPPRLPRPRPRPIALPRP	-0.213
RRIRIRPPRLPRPRPRPQGEPRP	-0.0606
RRIRHRPPRLPRPRPRPKWVPRP	-0.302
RRIRERPPRLPRPRPRPQLIPRP	-0.759
RRIRVRPPRLPRPRPRPSTMPRP	-0.213

Sequence	shrunken log2 fold change
RRIRKRPPRLPRPRPRPSNLPRP	-0.0133
RRIRDRPPRLPRPRPRPCWNPRP	-0.389
RRIRARPPRLPRPRPRPDRPPRP	0.448
RRIRHRPPRLPRPRPRPECIPRP	-0.00992
RRIRTRPPRLPRPRPRPICKPRP	-0.0914
RRIRTRPPRLPRPRPRPQHHPRP	-0.453
RRIRDRPPRLPRPRPRPSHGPRP	-0.0107
RRIRVRPPRLPRPRPRPKGCPRP	0.015
RRIRPRPPRLPRPRPRPGCDPRP	0.309
RRIRIRPPRLPRPRPRPLPNPRP	-0.217
RRIRVRPPRLPRPRPRPTDGPRP	0.0478
RRIRVRPPRLPRPRPRPVTWPRP	-0.14
RRIRFRPPRLPRPRPRPFTSPRP	-0.316
RRIRCRPPRLPRPRPRPHNSPRP	-0.273
RRIRRRPPRLPRPRPRPSKIPRP	0.0224
RRIRHRPPRLPRPRPRPRWLPRP	0.144
RRIRTRPPRLPRPRPRPDWMPRP	0.0121
RRIRFRPPRLPRPRPRPQMDPRP	0.0317
RRIRGRPPRLPRPRPRPNTRPRP	0.528
RRIRARPPRLPRPRPRPIDMPRP	-0.0819
RRIRERPPRLPRPRPRPSLIPRP	-2.26
RRIRMRPPRLPRPRPRPGGIPRP	0.545
RRIRGRPPRLPRPRPRPECLPRP	0.685
RRIRVRPPRLPRPRPRPKKHPRP	-0.0486
RRIRFRPPRLPRPRPRPVHRPRP	-0.261

Sequence	shrunken log2 fold change
RRIRARPPRLPRPRPRPPVHPRP	0.516
RRIRTRPPRLPRPRPRPCHDPRP	-0.215
RRIRYRPPRLPRPRPRPTCPPRP	-0.434
RRIRERPPRLPRPRPRPRMFPRP	0.00669
RRIRYRPPRLPRPRPRPVWHPRP	-0.0131
RRIRSRPPRLPRPRPRPKTQPRP	-0.0511
RRIRSRPPRLPRPRPRPTHHPRP	0.189
RRIRHRPPRLPRPRPRPRAHPRP	0.216
RRIRGRPPRLPRPRPRPMPLPRP	0.606
RRIRVRPPRLPRPRPRPMWHPRP	0.0166
RRIRLRPPRLPRPRPRPCNFPRP	-0.0369
RRIRCRPPRLPRPRPRPNDIPRP	-0.762
RRIRKRPPRLPRPRPRPHQAPRP	-0.137
RRIRLRPPRLPRPRPRPNCIPRP	-0.603
RRIRLRPPRLPRPRPRPCSGPRP	0.0583
RRIRHRPPRLPRPRPRPSTPPRP	-0.225
RRIRERPPRLPRPRPRPCGQPRP	-0.0982
RRIRMRPPRLPRPRPRPLLEPRP	2.21
RRIRFRPPRLPRPRPRPGGPPRP	0.511
RRIRGRPPRLPRPRPRPMGIPRP	0.0179
RRIRYRPPRLPRPRPRPKKRPRP	-0.11
RRIRQRPPRLPRPRPRPHIRPRP	-0.209
RRIRGRPPRLPRPRPRPEKRPRP	0.993
RRIRPRPPRLPRPRPRPKGHPRP	0.106
RRIRYRPPRLPRPRPRPKCHPRP	-0.139

— the supplement of paper PMC9112550, “Optimization of the antimicrobial peptide Bac7 by deep mutational scanning” (BMC Biology, 2022)
